Experimental data from the supplement of paper PMC9170038.

tested on: MS2 coat protein; assay: apparent KD of MS2 coat protein, switch ON state; designed switch direction (-1 OFF switch, 1 ON switch): 1; higher = weaker reporter binding; conditions: FMN input: 0 or 200 uM; Eterna round: R93 (includes R88 designs)
How it was run: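 Designed RNA switches were made by on-chip transcription from Illumina sequencing clusters and then titrated with SNAP-549-labelled MS2 coat protein. Twofold steps ran from 0.7 or 1.5 nM to 3 µM, each lasting 0.8–1.5 h early and 10–20 min late, in 100 mM Tris-HCl pH 7.5, 80 mM KCl, 4 mM MgCl2, without or with constant ligand. Apparent KD is the per-design median of normalised cluster binding-curve fits.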

“GAAAAACAUGAGGAUCACCCAUGUGGAAAUAUGGGAGGAUAUACUAUGACGAAAGUCAAAGUAGAAGGCCUGAUAG [JL S1 M-MoE mod 5 In the Read]” and “AGGAAACAUGAGGAUCACCCAUGUAAAAAUAUGGGAGGAUAUGGAAACACGAAAGUGAAACCAGAAGGCCCGAAAA [77%, Mat - Mod of Eli, 18]” are within 1.5-fold of each other in “apparent KD of MS2 coat protein” value: 24.7 nM for the first, 17.1 nM for the second.

Compared with “AAGAAAGAAACGCAGGAUAUGCAAAACAAAACAUGAGGAUCACCCAUGUCAAACAAACAAACAAAGCAGAAGGGCGAAAGAAAGAA [Same State 2 AA]”, “AAUACACAUGGUCAGGAUAUCGCAGCUAGGACAUGAGGAUCACCCAUGUAGCAUGUAACUGAAACCGAGAAGGGACAGGGUGAUC [JR_SS002_Sub412]” is 3.4-fold higher in “apparent KD of MS2 coat protein” value: 18.1 nM for the first, 61.4 nM for the second.

Compared with “AACAAUCUAUCUGAGGAUAUAUGUCGAAAGACAUGAGGAUCACCCAUGUGAAAACAUGAAAAAUCAUAGAAGGCAGAUAGAUUGA [SS2: 1138]”, “ACAAGGCUACACUAGGAUAUGGGUGUCUAAACAUGAGGAUCACCCAUGUGAUGGCAAAACAAAGCUCAGAAGGAGUCGUAGCCCA [Anvemais]” is 3.3-fold lower in “apparent KD of MS2 coat protein” value: 49 nM for the first, 14.7 nM for the second.

Going from “AAAAAACAUGAGGAUCACCCAUGUGCAAAAUUCGCAGGAUAUCCCUUUUUUAAAUGGGAGGGAGAAGGGUGAAAAA [Nob's Hobby 17 - Jieux - Same State 1]” to “AAAAAACAUGAGGAUCACCCAUGUGCAAAAUUCGCAGGAUAUUCCUCAAUUAAAUGAAAGGAAGAAGGGUGAUAAA [Nob's Hobby 31 - Jieux - Same State 1]”, the “apparent KD of MS2 coat protein” value rises from 23.7 nM to 79.7 nM (3.4-fold).

First: AUAUAUAUAAGGUAGGAUAUGCUAAAGUAAACAUGAGGAUCACCCAUGUAAAGAAAGAAACUCAUGUAGAAGGGCCAUAUAUAUA [viburnum 6]
Second: UAAAAACAUGAGGAUCACCCAUGUGAGAACAUGGGAGGAUAUACGAAGACGAAAGUCAAAGUAGAAGGCCUAAAAU [Mat - Same State 1 - Mod - D171]
The “apparent KD of MS2 coat protein” value of the first is 1.9-fold lower: 163 nM for the first, 302 nM for the second.

Compared with “AAAAAAAAAACUCAGGAUAUAGAUAAUUGAACAUGAGGAUCACCCAUGUAGUGAAAAAAAAAAAAUUAGAAGGGAGGAAAAAAAAA [SameState2-01]”, “AGGAAACAUGAGGAUCACCCAUGUAGAAAUAUGGGAGGAUAUACAAAGACGAAAGUCAAAGUAGAAGGCCUAAAAG [76%, Meechl 1]” is 2.3-fold lower in “apparent KD of MS2 coat protein” value: 52.9 nM for the first, 22.8 nM for the second.

“UGGAGACAUGAGGAUCACCCAUGUGAGAAGAGGCGAGGAUAUCGAAAGAAAGAAGAGAAACGAGAAGGCGCGAGCU [salish99-SS1-037]” and “UGGAGACAUGAGGAUCACCCAUGUGAGAAGAGGCGAGGAUAUCGAAAAAAAAAAAAAAAACGAGAAGGCGCGAGAC [salish99-SS1-010]” are within 1.5-fold of each other in “apparent KD of MS2 coat protein” value: 22.4 nM for the first, 33.3 nM for the second.

First: AAAAAACAUGAGGAUCACCCAUGUAAACCUCAUGUAGGAUAUACAAAAAAAAAAAAAAAAGUAGAAGGACAAAAAA [Omei A variation 2]
Second: ACUACACAUGAGGAUCACCCAUGUCAGGUGGGACUAGGAUAUUAUAAACCAGAGUAAAAAUAAGAAGGAGUAGAAA [JR_SS001_Sub308]
The “apparent KD of MS2 coat protein” value of the first is 92-fold higher: 4790 nM for the first, 51.8 nM for the second.

Going from “GAGGACCUAGGAUAGGAUAUGUGAAAAAUUACAUGAGGAUCACCCAUGUCCAUUUAUAUGGGAACAUAGAAGGGUUCUGGUUAUC [Mat - Same state - Malcolm Mod - D150]” to “AUGAUACAUGAGGAUCACCCAUGUCACCUCACACGAGGAUAUCUGUGCAGUACUCAGUACGGAGAAGGCGUGGAAA [Same State 1.2d (Same State of Confusion2 - KL)]”, the “apparent KD of MS2 coat protein” value falls from 35.7 nM to 20.2 nM (1.8-fold).

“AGAAAUAAAUCUCAGGAUAUGGGUAAAUAAACAUGAGGAUCACCCAUGUAAAAGAAAAUAAAAAACCAGAAGGGAGAAAAUAAGA [Designing denovo 2]” and “AUUAGACAUGAGGAUCACCCAUGUAGGCAGUCAUGAGGAUAUGGACAAGGUGCUCAAGGUCCAGAAGGCAUACGCC [Maxeus]” are within 1.5-fold of each other in “apparent KD of MS2 coat protein” value: 16.2 nM for the first, 14.8 nM for the second.

First: AAGAAACAUGAGGAUCACCCAUGUAAAAAUAUGGGAGGAUAUACAAGGACGUAAGUCAAGGUAGAAGGCCUAAGAA [Mat - Same State 1 - Meechl mod - D136]
Second: AAAAAAAAAAGGCAGGAUAUCCAAAAAAAAACAUGAGGAUCACCCAUGUAAAAAAAAAAAAAAUGGGAGAAGGGCCAAAAAAAAA [Mat - Same State 2 - Rerun Eli mod - D85]
The “apparent KD of MS2 coat protein” value of the first is 3.1-fold lower: 20.2 nM for the first, 63.1 nM for the second.

Going from “CGAAAGGAGAGAGAGGAUAUCCAAAGGAAAACAUGAGGAUCACCCAUGUAGAAGGUAGGAGAUUGGGAGAAGGCUCAAGAAAGAG [salish99-ss2-144]” to “AAAUAAAUGACUAAGGAUAUUUCAGAGAAAACAUGAGGAUCACCCAUGUAAUAAUAAAAAGGGUGAGAGAAGGUAGUCAACAAAC [74%, More Paria 4]”, the “apparent KD of MS2 coat protein” value falls from 23 nM to 13.8 nM (1.7-fold).

“AUAAAAGAAGCGAAGGAUAUCCAAAGAACCACAUGAGGAUCACCCAUGUAAAGAAAGAAAAAGUGGGAGAAGGUCGCAAAGAAUA [73%, More Fisker Same State 2, D3, 5]” and “CGCGAACAUGAGGAUCACCCAUGUGAAAAACAUAGAGGAUAUGUCGCAUGCGUGUAAAAGACAGAAGGCUAUCGCG [Normal (21/22)]” are within 1.5-fold of each other in “apparent KD of MS2 coat protein” value: 26.6 nM for the first, 22.8 nM for the second.

Compared with “CAGGACCUAGGAUAGGAUAUAUGAAUAAUUACAUGAGGAUCACCCAUGUCCAUUUAUAUGGGAACAUAGAAGGGUUCUGGUUAUG [Mat - Same state - Malcolm Mod - D134]”, “GGGAGACAUGAGGAUCACCCAUGUGAGAAGAGGCGAGGAUAUCGAAAGAAAGAAGAGAAACGAGAAGGCGCGAGAG [salish99-SS1-057]” is 2.3-fold higher in “apparent KD of MS2 coat protein” value: 20.8 nM for the first, 48 nM for the second.

“GACUGCGAUGUGAAGGAUAUCCGCGACUGGACAUGAGGAUCACCCAUGUAUGCUUAGAACAUGCCGGAGAAGGUCACGAAUGAUU [JR_SS002_Sub1217]” and “AAAUAUAAAAACUAGGAUAUACUAAAAUAAACAUGAGGAUCACCCAUGUAAAAAAAAAAACUCAUGUAGAAGGAGUAAAUAUAAA [ss2 9th]” are within 1.5-fold of each other in “apparent KD of MS2 coat protein” value: 20.6 nM for the first, 22.6 nM for the second.

“GAGGACCUAGGAUAGGAUAUAUGAAUAAUUACAUGAGGAUCACCCAUGUCCAUUUAUAUGGGAACAUAGAAGGGUUGUGGUUAUC [SameState2 Malc#36]” and “AAAAAACAUGAGGAUCACCCAUGUGACAACAUGGGAGGAUAUACGAAGACGAGAGUCGAAGUAGAAGGCCUAAAAA [Garnet 76]” are within 1.5-fold of each other in “apparent KD of MS2 coat protein” value: 147 nM for the first, 98.5 nM for the second.

Going from “CGGAGACAUGAGGAUCACCCAUGUGAGAAGAGGCGAGGAUAUCGAAAGAAAGAAGAGAAACGAGAAGGCGCGAGCA [salish99-SS1-068]” to “CUGGACCUAGGAUAGGAUAUGUGAAUAAUUACAUGAGGAUCACCCAUGUCCAUUUAUAUGGGAACAUAGAAGGGUUCUGGUUAAG [Mat - Same state - Malcolm Mod - D146]”, the “apparent KD of MS2 coat protein” value rises from 22.9 nM to 42.2 nM (1.8-fold).

Compared with “GAAAAACAUGAGGAUCACCCAUGUGUAAAUAUGGAAGGAUAUACAAAGACGAAAGUCAAAGUAGAAGGUCUAAAAG [Mat - Same State 1 - Eli mod - D16]”, “AGGAAACAUGAGGAUCACCCAUGUAGAAAAAUGGGAGGAUAUACAAAGACGAAAGUCAAAGUAGAAGGCCUAAAAG [76%, Meechl, 6]” is 1.6-fold lower in “apparent KD of MS2 coat protein” value: 23.5 nM for the first, 14.5 nM for the second.

Compared with “AAGAAAGUUUACGAGGAUAUGUUCCGCAGAACAUGAGGAUCACCCAUGUGAACACGAAGUGCGACGCAGAAGGCGUGAGCAAUGA [Isenmaqu]”, “CAUCAACAUGAGGAUCACCCAUGUCAUUGAUGUCAAGGAUAUGGGAGACAUAAAAUUCUUCUAGAAGGUGAAAGAU [Mainuson]” is 18-fold higher in “apparent KD of MS2 coat protein” value: 34.5 nM for the first, 636 nM for the second.

“CGCGAACAUGAGGAUCACCCAUGUAAAUCGCAUGUAGGAUAUGGGAAACACAUUAAGAUCCCAGAAGGGCGGAAAA [Anquve]” and “AGGAGACAUGAGGAUCACCCAUGUGCACGUGGACGAGGAUAUGCUAGUAGAAGAUAGAAUGCAGAAGGCGUAAGAA [Mod of JR]” are within 1.5-fold of each other in “apparent KD of MS2 coat protein” value: 41.3 nM for the first, 48.4 nM for the second.

“AGGAAACAUGAGGAUCACCCAUGUAAAAAAUAUGGAGGAUAUGGAAACACGAAAGUGAAACCAGAAGGCUAAAAAA [77%, Mat - Mod of Eli, 24]” and “AAAGAAAAACUAGAGGAUAUCCAAGUGGUAACAUGAGGAUCACCCAUGUGAAGAAAGGAGCAUGAGGAGAAGGCUAGAAGAAAAA [JL Nando mod 25]” are within 1.5-fold of each other in “apparent KD of MS2 coat protein” value: 17 nM for the first, 19.2 nM for the second.
